Reference: article PMC11464748, “A novel assay of excess plasma kallikrein-kinin system activation in hereditary angioedema” (Frontiers in Allergy, 2024)
Values joined by “and” are separate entries in the source; they are usually repeats but may differ in a detail not shown here. Equal entries are not always repeated.

What was measured:
Conditions in all cases: both partners purified
[1] = target: T1, cleaved high-molecular-weight kininogen (HKa), purified (Homo sapiens, UniProt P01042, biotin (biotinylated HKa in the Fab screening ELISA) | biotin (biotinylated HKa in the Fab screening ELISA)); assay: SPR; in the presence of zinc chloride
T1 construct: heavy chain of HKa, the two-chain disulfide-linked product of high-molecular-weight kininogen after release of bradykinin, human; light chain of HKa, human; the purified HKa standard mainly consists of the 46-kDa light chain; also called cleaved HK; purified HKa standard protein; source: bought: Enzyme Research Laboratories

[2] = target: T1, cleaved high-molecular-weight kininogen …; assay: SPR; in the absence of zinc chloride
[3] = target: T2, cleaved high-molecular-weight kininogen (HKa) (Homo sapiens, UniProt P01042); assay: SPR; HKa immobilised by amine coupling on a CM5 chip (~400 RU), M4-B4 injected 2 min at 50 uL/min, 15 min dissociation; Biacore 3000, 25°C, HBS-P (10 mM HEPES pH 7.4, 150 mM NaCl, 0.005% P20); no added ZnCl2; 1:1 model
T2 construct: the two chains are linked by a disulfide; light chain of HKa (56-kDa or 46-kDa form); the purified HKa standard protein mainly consists of the 46-kDa light chain; also called cleaved HK; source: bought: Enzyme Research Laboratories
T2 sequence (P01042 whole entry, looked up): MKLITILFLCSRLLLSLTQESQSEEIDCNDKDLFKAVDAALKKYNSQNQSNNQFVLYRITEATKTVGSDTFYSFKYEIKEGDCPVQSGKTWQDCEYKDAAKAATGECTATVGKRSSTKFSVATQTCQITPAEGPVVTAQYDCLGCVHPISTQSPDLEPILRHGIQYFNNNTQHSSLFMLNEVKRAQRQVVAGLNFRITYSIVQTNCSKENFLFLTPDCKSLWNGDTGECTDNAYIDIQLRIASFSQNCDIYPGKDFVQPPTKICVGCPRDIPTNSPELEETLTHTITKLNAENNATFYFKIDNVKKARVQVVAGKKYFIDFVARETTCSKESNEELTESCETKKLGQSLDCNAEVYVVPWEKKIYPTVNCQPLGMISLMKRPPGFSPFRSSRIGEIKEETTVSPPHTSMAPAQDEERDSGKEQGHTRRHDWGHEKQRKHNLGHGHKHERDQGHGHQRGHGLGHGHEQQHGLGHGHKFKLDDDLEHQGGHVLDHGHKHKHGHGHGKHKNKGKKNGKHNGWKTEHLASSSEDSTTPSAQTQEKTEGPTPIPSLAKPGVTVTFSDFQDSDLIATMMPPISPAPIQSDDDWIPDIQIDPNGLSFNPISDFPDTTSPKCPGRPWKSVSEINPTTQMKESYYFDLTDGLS

[4] = target: T2, cleaved high-molecular-weight kininogen …; assay: SPR; HKa immobilised by amine coupling on a CM5 chip (~400 RU), M4-B4 injected 2 min at 50 uL/min, 15 min dissociation; Biacore 3000, 25°C, HBS-P (10 mM HEPES pH 7.4, 150 mM NaCl, 0.005% P20) with 200 uM ZnCl2; regeneration 10 mM glycine pH 1.5; 1:1 model

B1: M4-B4 antibody (Fab or IgG, format not told for the experiment) (antibody, V domains shown)
VH: EVQLLESGGGLVQPGGSLRLSCAASGFTFSFYVMVWVRQAPGKGLEWVSGISPSGGNTAYADSVKGRFTISRDNSKNTLYLQMNSLRAEDTAVYYCARKLFYYDDTKGYFDFWGQGTLVTVSS
VL: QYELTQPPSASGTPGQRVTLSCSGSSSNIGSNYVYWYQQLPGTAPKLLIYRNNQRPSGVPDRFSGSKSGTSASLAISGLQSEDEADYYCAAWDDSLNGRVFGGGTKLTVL
notes: variable part as the heavy chain of m1; as the light chain of m1; The optimised ELISA coated 'the M4-B4 Fab or IgG'; also called HKa-specific antibody
B1 was tested, and the Kd [1] was 1.06 ± 0.25 nM and the Kd [2] was 6.08 ± 0.26 nM.

B2: M4-B4 (antibody, V domains shown)
VH: B1 VH
VL: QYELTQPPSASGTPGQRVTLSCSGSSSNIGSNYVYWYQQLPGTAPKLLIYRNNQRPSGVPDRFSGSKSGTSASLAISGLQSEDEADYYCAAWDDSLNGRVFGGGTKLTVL
notes: The legend of the SPR says only 'M4-B4 injected'; also called M004-B04; 559B-M0004-B04; source: Fab: E. coli, purified (protein A Sepharose); IgG1: 293T cells, transiently expressed, purified (protein A Sepharose)
With B2 the Kd [3] was 5.9 nM and 6.26 nM, the koff [3] was 0.0067 s⁻¹ and 0.00616 s⁻¹ and 0.00643 s⁻¹ and the kon [3] was 1.1e+06 M⁻¹ s⁻¹ (2×) and 984000 M⁻¹ s⁻¹. For the same binder, the Kd [4] was 1.09 nM and 1.24 nM and 0.881 nM, the koff [4] was 0.00125 s⁻¹ and 0.00172 s⁻¹ and 0.00156 s⁻¹ and 0.00164 s⁻¹ and the kon [4] was 1.38e+06 M⁻¹ s⁻¹ and 1.77e+06 M⁻¹ s⁻¹ and 1.58e+06 M⁻¹ s⁻¹ and 1.15e+06 M⁻¹ s⁻¹.
